One data set deals with 2-LMP. Nature of the data set: Cytotoxicity on human tumor cell lines (ATPLite Assay Kit). To be noted: Breast cancer. The class given is cell-based. As to the method:
(§1) Eighteen human tumor cell lines were treated with 62.5, 125, 250, 500, or 1000 ng/mL HuCTB006 or different concentrations of chemotherapy drugs, which act as positive controls. […] The culture medium for SK-Hep-1, HepG2, HCT116, SW480, WiDr (1×NEAA), MIA-PaCa-2 (2.5% Horse serum) MDA-MB-231 (1 mM NaPyr, 1×MEM-NEAA, 1×MEM VITAMIN) was DMEM. The culture medium for COLO205, BXPC3 (2 mM glutamin, 10 mM HEPES), Panc2.03 (15FBS, 1 mM NaPyr, 1×MEM-NEAA, […], 10 mM HEPES), H2122, OVCAR3 (1 mM NaPyr, 10 ug/ml human insulin, 10 mM HEPES, 2.5 g/L glucose), Molt-4 (HEPES, 2.5 g/l glocose), Jurkat (HEPES, 2.5 g/l glocose) was RPMI-1640, the culture medium for SK-MES-1 was Eagle's MEM, the culture medium for 2-LMP and DY36T2 was IMEM, and the culture medium for SUM102 (5 ug/ml insulin) was F-12K. The cell viability was determined by ATPLite Assay Kit. If the IC50 value was lower than 62.5 ng/mL, the cells were treated with higher concentration of CTB006 in the second round of experiments to determine IC50 value.

Another data set relates to BXPC3. Described as above. The class given is cell-based. To be noted: BXPC3, Pancreatic cancer. As to the method:
as §1

For the next data set, the system named is COLO205. The data set is described as above. The class given is cell-based. The following applies: COLO205, Colorectal cancer. As to the method:
as §1

The test system of a further data set is H2122. Described as above. The class given is cell-based. To be noted: H2122, Lung cancer. The procedure:
as §1

The test system of a further data set is HCT116. Described as above. The class given is cell-based. To be noted: HCT116, Colorectal cancer. The procedure: as §1
In a further data set the test system is MDA-MB-231. The data set is described as above. The class given is cell-based. To be noted: MDA-MB-231, Breast cancer. The procedure:
as §1

In a further data set the test system is MIA-PaCa-2. Described as above. The class given is cell-based. To be noted: MIA-PaCa-2, Pancreatic cancer. The procedure:
as §1

In another data set the test system is Panc2.03. Described as above. To be noted: Panc2.03, Pancreatic cancer. The class given is cell-based. The procedure: as §1
The subject of another data set is SK-Hep-1. The data set is described as above. The following applies: SK-Hep-1, Liver cancer. The class given is cell-based. As to the method: as §1
A further data set relates to SK-MES-1. The data set is described as above. The class given is cell-based. The following applies: SK-MES-1, Lung cancer. The procedure:
as §1

Another data set relates to SUM102. The data set is described as above. The class given is cell-based. The following applies: SUM102, Breast cancer. As to the method: as §1
The subject of the next data set is SW480. The data set is described as above. The class given is cell-based. The following applies: SW480, Colorectal cancer. As to the method: as §1
The test system of the next data set is A427. Nature of the data set: In vitro cytotoxic sensitivity of CTB006. The class given is cell-based, human. The following applies: A427, Lung cancer.
For the next data set, the system named is Huh-7. Nature of the data set: In vitro cytotoxic sensitivity of CTB006. To be noted: Huh-7, Liver cancer. The class given is cell-based, human.
Another data set deals with SW620. Nature of the data set: In vitro cytotoxic sensitivity of CTB006. The class given is cell-based, human. The following applies: SW620, Colorectal cancer.
The subject of a further data set is OVCA3. Nature of the data set: In vitro cytotoxic sensitivity of CTB006. The class given is cell-based, human. The following applies: OVCA3, Ovarian cancer.
The test system of a further data set is HCC1954. Nature of the data set: In vitro cytotoxic sensitivity of CTB006. The class given is cell-based, human. To be noted: HCC1954, Breast cancer.
The subject of the next data set is MDA-MB-361. Nature of the data set: In vitro cytotoxic sensitivity of CTB006. The class given is cell-based, human. To be noted: MDA-MB-361, Breast cancer.
For the next data set, the system named is BGC823. Nature of the data set: In vitro cytotoxic sensitivity of CTB006. The class given is cell-based, human. To be noted: BGC823, Stomach cancer.
Another data set has as its system BGC803. Nature of the data set: In vitro cytotoxic sensitivity of CTB006. To be noted: BGC803, Stomach cancer. The class given is cell-based, human.
In a further data set the test system is MKN28. Nature of the data set: In vitro cytotoxic sensitivity of CTB006. The following applies: MKN28, Stomach cancer. The class given is cell-based, human.
Another data set has as its system N87. Nature of the data set: In vitro cytotoxic sensitivity of CTB006. The class given is cell-based, human. To be noted: N87, Stomach cancer.
The next data set concerns colon cancer, CS146, 2#. Nature of the data set: Patients primary tumor tissue subcutaneous model (Day 30 after treatment). To be noted: HuCTB006 10 mg/kg i.v. QW × 6w alone. The class given is in vivo, nude mice. The text has this: Fresh primary tumor tissues from patients were implanted in NOD/SCID mice's flank, which developed into a primary tumor, which was then transferred to the nude mice's flank to allow the tumor reaching an exponential growth phase, and the tumor was named 1# tumor, and so on. When the tumor volume and number reached passage requirements, they were implanted into the right flank of nude mice. When the tumors' average volumes reached 100-200 mm^3, the mice were grouped.
The bodyweight and major/minor axis of mice were measured twice a week, and Tumor Growth Inhibition (TGI) and tumor volume were calculated same as in 5.1.5. In addition, to evaluate the synergetic effect of drug combination in tumor growth, Jin Zhengjun Q value judgment method was used with the follow formula: Q=Ea+b/(Ea+Eb−Ea×Eb). Ea+b is the inhibition ratio of drug combination, Ea and Eb are the inhibition ratio of each of drug treatment when it is administered alone. […] The animals were monitored, and when the experiments were concluded, mice were sacrificed and tumors were extracted and weighted. All the animal experiments confer to the regulations of animal's welfare and the management of experimental animal usage.
Tumor volumes were represented with average±standard error. Data analysis was done using Spss16.0, One-Way ANOVA, LSD (homogeneity of variance) or Dunnett T3 (non-homogeneity of variance). […]

For “HuCTB006: Monospecific humanized chimeric monoclonal antibody directed to TRAIL-R2 receptor; heavy chain SEQ ID NO: 14, light chain SEQ ID NO: 12”, the “In vitro cytotoxic sensitivity of CTB006” value in the data set on 2-LMP, in the data set with BXPC3, with COLO205, in the data set on H2122, in the data set with HCT116 and in the data set with MDA-MB-231 was “Responder” each time. The “In vitro cytotoxic sensitivity of CTB006” value with MIA-PaCa-2 is recorded as “Responder”; in the data set on Panc2.03, “Partial-responder”; in the data set with SK-Hep-1, “Partial-responder”; in the data set on SK-MES-1 it was “Responder”; in the data set with SUM102, “Partial-responder”; in the data set on SW480 it was “Partial-responder”. Moreover, the “In vitro cytotoxic sensitivity of CTB006” value with A427, with Huh-7, in the data set on SW620, in the data set with OVCA3, with HCC1954 and in the data set on MDA-MB-361 was “Non-responder” in each case. The “In vitro cytotoxic sensitivity of CTB006” value with BGC823 is reported as “Partial-responder”; in the data set with BGC803, “Non-responder”; with MKN28, “Non-responder”; in the data set with N87 it was “Non-responder”. For the same substance, in the data set with colon cancer, CS146, 2#, the “inhibitory effect on the growth of CS146” value is “did not”.

The values are drawn from patent US20180125993A1 (BEIJING COTIMES BIOTECH COMPANY LIMITED, priority 2014, published 2018).
